In patent US20190185537A1 (AstraZeneca / MedImmune, published 2019):
Numbered stars: 1 amine (or outer) side, 2 acyl side, 3 side chain; on linkers, the order of the positions; unused ones are H or OH. Side chains are listed from the residue outwards. Ends that are not written are not given here. * marks the point of attachment. γGlu = O=C(O)[C@H](CCC(=O)[*:2])N[*:1]; Palmitoyl = CCCCCCCCCCCCCCCC(=O)*; Ahx = NCCCCCC(=O)O; βAla = NCCC(=O)O

T1: human glucose-dependent insulinotropic peptide (gastric inhibitory polypeptide) receptor (human) (UniProt P48546)
T1 sequence (looked up): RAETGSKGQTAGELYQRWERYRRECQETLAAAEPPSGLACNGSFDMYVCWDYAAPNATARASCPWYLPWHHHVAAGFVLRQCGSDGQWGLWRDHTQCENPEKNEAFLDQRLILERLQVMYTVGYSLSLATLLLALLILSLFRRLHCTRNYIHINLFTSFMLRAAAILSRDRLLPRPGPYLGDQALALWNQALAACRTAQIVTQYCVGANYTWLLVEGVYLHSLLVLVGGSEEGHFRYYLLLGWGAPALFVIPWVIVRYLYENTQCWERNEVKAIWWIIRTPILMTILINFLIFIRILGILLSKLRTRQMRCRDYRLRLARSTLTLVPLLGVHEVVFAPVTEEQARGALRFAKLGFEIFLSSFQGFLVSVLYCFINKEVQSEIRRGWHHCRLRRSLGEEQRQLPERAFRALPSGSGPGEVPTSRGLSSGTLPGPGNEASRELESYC

B1: g614 (peptide)
peptide: HSQGTFTSDYSEYLDSK([Ahx-Palmitoyl])RAQDFVQWLERGG-NH2
modifications: N-terminus assumed
SMILES: CCCCCCCCCCCCCCCC(=O)NCCCCCC(=O)NCCCC[C@H](NC(=O)[C@H](CO)NC(=O)[C@H](CC(=O)O)NC(=O)[C@H](CC(C)C)NC(=O)[C@H](Cc1ccc(O)cc1)NC(=O)[C@H](CCC(=O)O)NC(=O)[C@H](CO)NC(=O)[C@H](Cc1ccc(O)cc1)NC(=O)[C@H](CC(=O)O)NC(=O)[C@H](CO)NC(=O)[C@@H](NC(=O)[C@H](Cc1ccccc1)NC(=O)[C@@H](NC(=O)CNC(=O)[C@H](CCC(N)=O)NC(=O)[C@H](CO)NC(=O)[C@@H](N)Cc1c[nH]cn1)[C@@H](C)O)[C@@H](C)O)C(=O)N[C@@H](CCCNC(=N)N)C(=O)N[C@@H](C)C(=O)N[C@@H](CCC(N)=O)C(=O)N[C@@H](CC(=O)O)C(=O)N[C@@H](Cc1ccccc1)C(=O)N[C@H](C(=O)N[C@@H](CCC(N)=O)C(=O)N[C@@H](Cc1c[nH]c2ccccc12)C(=O)N[C@@H](CC(C)C)C(=O)N[C@@H](CCC(=O)O)C(=O)N[C@@H](CCCNC(=N)N)C(=O)NCC(=O)NCC(N)=O)C(C)C
B2: g684 (peptide)
peptide: HGQGTFTSDYSEYLDSK([Ahx-Palmitoyl])RARDFVAWLERGG-NH2
modifications: N-terminus assumed
SMILES: CCCCCCCCCCCCCCCC(=O)NCCCCCC(=O)NCCCC[C@H](NC(=O)[C@H](CO)NC(=O)[C@H](CC(=O)O)NC(=O)[C@H](CC(C)C)NC(=O)[C@H](Cc1ccc(O)cc1)NC(=O)[C@H](CCC(=O)O)NC(=O)[C@H](CO)NC(=O)[C@H](Cc1ccc(O)cc1)NC(=O)[C@H](CC(=O)O)NC(=O)[C@H](CO)NC(=O)[C@@H](NC(=O)[C@H](Cc1ccccc1)NC(=O)[C@@H](NC(=O)CNC(=O)[C@H](CCC(N)=O)NC(=O)CNC(=O)[C@@H](N)Cc1c[nH]cn1)[C@@H](C)O)[C@@H](C)O)C(=O)N[C@@H](CCCNC(=N)N)C(=O)N[C@@H](C)C(=O)N[C@@H](CCCNC(=N)N)C(=O)N[C@@H](CC(=O)O)C(=O)N[C@@H](Cc1ccccc1)C(=O)N[C@H](C(=O)N[C@@H](C)C(=O)N[C@@H](Cc1c[nH]c2ccccc12)C(=O)N[C@@H](CC(C)C)C(=O)N[C@@H](CCC(=O)O)C(=O)N[C@@H](CCCNC(=N)N)C(=O)NCC(=O)NCC(N)=O)C(C)C
B3: g721 (peptide)
peptide: HGQGTFTSDYSEYLDSK([γGlu-Palmitoyl])RARDFVAWLERGG-NH2
modifications: N-terminus assumed
SMILES: CCCCCCCCCCCCCCCC(=O)N[C@@H](CCC(=O)NCCCC[C@H](NC(=O)[C@H](CO)NC(=O)[C@H](CC(=O)O)NC(=O)[C@H](CC(C)C)NC(=O)[C@H](Cc1ccc(O)cc1)NC(=O)[C@H](CCC(=O)O)NC(=O)[C@H](CO)NC(=O)[C@H](Cc1ccc(O)cc1)NC(=O)[C@H](CC(=O)O)NC(=O)[C@H](CO)NC(=O)[C@@H](NC(=O)[C@H](Cc1ccccc1)NC(=O)[C@@H](NC(=O)CNC(=O)[C@H](CCC(N)=O)NC(=O)CNC(=O)[C@@H](N)Cc1c[nH]cn1)[C@@H](C)O)[C@@H](C)O)C(=O)N[C@@H](CCCNC(=N)N)C(=O)N[C@@H](C)C(=O)N[C@@H](CCCNC(=N)N)C(=O)N[C@@H](CC(=O)O)C(=O)N[C@@H](Cc1ccccc1)C(=O)N[C@H](C(=O)N[C@@H](C)C(=O)N[C@@H](Cc1c[nH]c2ccccc12)C(=O)N[C@@H](CC(C)C)C(=O)N[C@@H](CCC(=O)O)C(=O)N[C@@H](CCCNC(=N)N)C(=O)NCC(=O)NCC(N)=O)C(C)C)C(=O)O
B4: g724 (peptide)
peptide: HGEGTFTSDYSEYLDSK([Ahx-Palmitoyl])RARDFVAWLERGG-NH2
modifications: N-terminus assumed
SMILES: CCCCCCCCCCCCCCCC(=O)NCCCCCC(=O)NCCCC[C@H](NC(=O)[C@H](CO)NC(=O)[C@H](CC(=O)O)NC(=O)[C@H](CC(C)C)NC(=O)[C@H](Cc1ccc(O)cc1)NC(=O)[C@H](CCC(=O)O)NC(=O)[C@H](CO)NC(=O)[C@H](Cc1ccc(O)cc1)NC(=O)[C@H](CC(=O)O)NC(=O)[C@H](CO)NC(=O)[C@@H](NC(=O)[C@H](Cc1ccccc1)NC(=O)[C@@H](NC(=O)CNC(=O)[C@H](CCC(=O)O)NC(=O)CNC(=O)[C@@H](N)Cc1c[nH]cn1)[C@@H](C)O)[C@@H](C)O)C(=O)N[C@@H](CCCNC(=N)N)C(=O)N[C@@H](C)C(=O)N[C@@H](CCCNC(=N)N)C(=O)N[C@@H](CC(=O)O)C(=O)N[C@@H](Cc1ccccc1)C(=O)N[C@H](C(=O)N[C@@H](C)C(=O)N[C@@H](Cc1c[nH]c2ccccc12)C(=O)N[C@@H](CC(C)C)C(=O)N[C@@H](CCC(=O)O)C(=O)N[C@@H](CCCNC(=N)N)C(=O)NCC(=O)NCC(N)=O)C(C)C
B5: g727 (peptide)
peptide: HGQGTFTSDYSEYLDSK([Ahx-Palmitoyl])RARDFVAWLERGG-OH
modifications: N-terminus assumed
SMILES: CCCCCCCCCCCCCCCC(=O)NCCCCCC(=O)NCCCC[C@H](NC(=O)[C@H](CO)NC(=O)[C@H](CC(=O)O)NC(=O)[C@H](CC(C)C)NC(=O)[C@H](Cc1ccc(O)cc1)NC(=O)[C@H](CCC(=O)O)NC(=O)[C@H](CO)NC(=O)[C@H](Cc1ccc(O)cc1)NC(=O)[C@H](CC(=O)O)NC(=O)[C@H](CO)NC(=O)[C@@H](NC(=O)[C@H](Cc1ccccc1)NC(=O)[C@@H](NC(=O)CNC(=O)[C@H](CCC(N)=O)NC(=O)CNC(=O)[C@@H](N)Cc1c[nH]cn1)[C@@H](C)O)[C@@H](C)O)C(=O)N[C@@H](CCCNC(=N)N)C(=O)N[C@@H](C)C(=O)N[C@@H](CCCNC(=N)N)C(=O)N[C@@H](CC(=O)O)C(=O)N[C@@H](Cc1ccccc1)C(=O)N[C@H](C(=O)N[C@@H](C)C(=O)N[C@@H](Cc1c[nH]c2ccccc12)C(=O)N[C@@H](CC(C)C)C(=O)N[C@@H](CCC(=O)O)C(=O)N[C@@H](CCCNC(=N)N)C(=O)NCC(=O)NCC(=O)O)C(C)C

Tests used:
Assay in all cases: cell-based or functional assay
[1] = target: human glucagon receptor (human, UniProt P47871 26-477)
Sequence of human glucagon receptor (P47871 26-477): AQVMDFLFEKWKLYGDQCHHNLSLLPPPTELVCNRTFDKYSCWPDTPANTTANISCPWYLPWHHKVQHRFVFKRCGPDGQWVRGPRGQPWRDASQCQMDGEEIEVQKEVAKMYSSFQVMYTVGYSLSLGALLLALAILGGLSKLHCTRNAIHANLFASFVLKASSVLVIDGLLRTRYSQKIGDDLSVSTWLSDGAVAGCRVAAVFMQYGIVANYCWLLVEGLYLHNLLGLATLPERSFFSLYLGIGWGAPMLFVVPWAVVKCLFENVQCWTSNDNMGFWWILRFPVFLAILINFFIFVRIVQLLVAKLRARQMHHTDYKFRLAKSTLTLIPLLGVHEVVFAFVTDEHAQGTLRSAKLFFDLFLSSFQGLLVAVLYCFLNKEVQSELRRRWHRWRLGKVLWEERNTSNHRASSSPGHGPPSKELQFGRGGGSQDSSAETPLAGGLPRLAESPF

[2] = target: human GLP-1 receptor (human, UniProt P43220 24-463)
Sequence of human GLP-1 receptor (P43220 24-463): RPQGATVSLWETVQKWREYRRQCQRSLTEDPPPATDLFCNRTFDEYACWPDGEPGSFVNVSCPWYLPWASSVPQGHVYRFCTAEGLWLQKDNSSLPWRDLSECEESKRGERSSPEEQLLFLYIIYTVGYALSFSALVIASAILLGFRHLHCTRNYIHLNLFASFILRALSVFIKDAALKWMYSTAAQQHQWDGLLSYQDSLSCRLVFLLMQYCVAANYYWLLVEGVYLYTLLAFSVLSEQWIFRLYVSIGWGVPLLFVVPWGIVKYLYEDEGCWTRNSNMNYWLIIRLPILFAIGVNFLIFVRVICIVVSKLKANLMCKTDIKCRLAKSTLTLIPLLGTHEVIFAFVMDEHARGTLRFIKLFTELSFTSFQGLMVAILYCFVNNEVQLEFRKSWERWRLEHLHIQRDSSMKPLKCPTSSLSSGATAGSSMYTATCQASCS

[3] = target: T1, human glucose-dependent insulinotropic peptide (gastric inhibitory polypeptide) receptor (human)

Binder	cAMP EC50 (assay 1) [1]	cAMP EC50 (assay 1) [2]	cAMP EC50 (assay 1) [3]
B1	0.00365 nM	0.00931 nM	99.3 nM
B2	0.164 nM	0.0151 nM	146 nM
B3	3.23 nM	0.411 nM	979 nM
B4	30.9 nM	0.019 nM	933 nM
HSQGTFTSDYSEYLDSK([γGlu-Palmitoyl])RARDFVAWLERGG-NH2 (not fully specified) [g772]	0.184 nM	0.292 nM	1540 nM
HSQGTFTSDYSEYLDSK([βAla-Palmitoyl])RARDFVAWLERGG-NH2 (not fully specified) [g795]	0.11 nM	0.0734 nM	579 nM
HSQGTFTSDYSEYLDSK([Ahx-Palmitoyl])RARDFVAWLERGG-NH2 (not fully specified) [g794]	0.00469 nM	0.0157 nM	32.2 nM
HSQGTFTSDYSEYLDSK([Ahx-Palmitoyl])RARDFVAWLERGG-OH (not fully specified) [g826]	0.00423 nM	0.0293 nM	58 nM
B5	0.218 nM	0.0263 nM	177 nM
